Data reported in patent US20140154252A1 (EMERGENT PRODUCT DEVELOPMENT SEATTLE, published 2014).

T1: CD20 (human, UniProt P11836 1-297)
T1 construct: whole, on cells; 2H7 is called murine anti-human CD20; also called CD20 presented on WIL-2S cells; CD20 on Ramos, BJAB, SU-DHL-6 and DoHH2 B cells
T1 sequence (looked up): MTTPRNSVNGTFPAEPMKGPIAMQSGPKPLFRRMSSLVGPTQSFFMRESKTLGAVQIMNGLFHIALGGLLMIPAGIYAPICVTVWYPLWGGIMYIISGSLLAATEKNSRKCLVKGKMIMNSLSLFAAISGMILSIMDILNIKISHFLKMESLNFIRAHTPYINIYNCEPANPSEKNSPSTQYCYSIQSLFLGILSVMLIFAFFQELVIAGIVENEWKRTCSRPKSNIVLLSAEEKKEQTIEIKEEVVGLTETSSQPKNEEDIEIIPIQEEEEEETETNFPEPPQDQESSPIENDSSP


Assays:
[1] = biological target: T2, CD28 presented on CHO cells (UniProt P10747 19-220, limits assumed); experiment: flow cytometry, lower graph taken as panel B of the legend = CD28 CHO cells; FITC goat anti-human IgG [lower graph]
T2 construct: whole, on cells; also called CD28 CHO; CD28-expressing CHO cells
Description: (§1) Seeded plates containing the proteins were incubated on ice for one hour. Subsequently, the wells were washed once with 200 μl 1% FBS in PBS. Goat anti-human antibody labeled with FITC (Fc Sp) at 1:100 was then added to each well, and the plates were again incubated on ice for one hour. The plates were then washed once with 200 μl 1% FBS in PBS and the cells were re-suspended in 200 μl 1% FBS and analyzed by FACS.
(§2) To assess the binding properties of the anti-CD28 peptide 2E12 VHVL, CD28-expressing CHO cells were plated by seeding in individual wells of a culture plate. […] The 2E12IgGvHvL SMIP purified protein was added to individual seeded wells, again using a two-fold dilution scheme, i.e., from 20 μg/ml down to […]. One well received no protein to provide a background control. The plates were then incubated on ice for one hour, washed once with 200 μl 1% FBS in PBS, and goat anti-human antibody labeled with FITC (Fc Sp) at 1:100 was added to each well. The plates were again incubated on ice for one hour and subsequently washed once with 200 μl 1% FBS in PBS. Following re-suspension of the cells in 200 μl 1% FBS, FACS analysis was performed.

[2] = biological target: T3, CD28mIgG (UniProt P10747 19-152); experiment: sandwich flow cytometry: fusion protein titrated on WIL-2S cells (held by CD20), then CD28mIgG, then FITC anti-mouse
T3 construct: Bought reagent; the construct is not described; also called CD28Ig (Ancell); CD28 fused to mouse antibody; not shown: mouse Ig part of the bought fusion; not described

[3] = biological target: T1, CD20; experiment: flow cytometry, upper graph taken as panel A of the legend = WIL-2S cells (CD20); FITC goat anti-human IgG [upper graph]
Description: as §1, §2

[4] = biological target: T1, CD20; experiment: flow cytometry on WIL2S cells (CD20), FITC goat anti-human IgG; no unit printed on the axis (legend: ug/ml)
[5] = biological target: T1, CD20; experiment: flow cytometry, dilutions of crude COS supernatant on WIL-2S cells (CD20), FITC goat anti-human IgG
Description: as §1

Binder | EC50 (read off the curve) [1] [µg/mL] | EC50 (read off the curve) [2] [µg/mL] | EC50 (read off the curve) [3] [µg/mL] | binding result [4] | binding result [5]
2H7-sss-hIgG P238S/P331S-H3-2e12 VHVL (bispecific antibody, Assembled from modules as m11; also called 2H7-sss-hIgG-H3-2e12 HL) QIVLSQSPAILSASPGEKVTMTCRASSSVSYMHWYQQKPGSSPKPWIYAPSNLASGVPARFSGSGSGTSYSLTISRVEAEDAATYYCQQWSFNPPTFGAGTKLELKDGGGSGGGGSGGGGSSQAYLQQSGAESVRPGASVKMSCKASGYTFTSYNMHWVKQTPRQGLEWIGAIYPGNGDTSYNQKFKGKATLTVDKSSSTAYMQLSSLTSEDSAVYFCARVVYYSNSYWYFDVWGTGTTVTVSEPKSSDKTHTSPPSPAPELLGGSSVFLFPPKPKDTLMISRTPEVTCVVVDVSHEDPEVKFNWYVDGVEVHNAKTKPREEQYNSTYRVVSVLTVLHQDWLNGKEYKCKVSNKALPASIEKTISKAKGQPREPQVYTLPPSRDELTKNQVSLTCLVKGFYPSDIAVEWESNGQPENNYKTTPPVLDSDGSFFLYSKLTVDKSRWQQGNVFSCSVMHEALHNHYTQKSLSLSPGKNYGGGGSGNSQVQLKESGPGLVAPSQSLSITCTVSGFSLTGYGVNWVRQPPGKGLEWLGMIWGDGSTDYNSALKSRLSITKDNSKSQVFLKMNSLQTDDTARYYCARDGYSNFHYYVMDYWGQGTSVTVSSGGGGSGGGGSGGGGSGGGGSDIVLTQSPASLAVSLGQRATISCRASESVEYYVTSLMQWYQQKPGQPPKLLISAASNVESGVPARFSGSGSGTDFSLNIHPVEEDDIAMYFCQQSRKVPWTFGGGTKLEIKR | ~0.8 | ~0.4 | ~1 |  | 
2H7-sss-hIgG-H7-2e12 HL (bispecific antibody, Assembled from modules as m11; also called 2H7-sss-IgG-H7-2e12-HL) QIVLSQSPAILSASPGEKVTMTCRASSSVSYMHWYQQKPGSSPKPWIYAPSNLASGVPARFSGSGSGTSYSLTISRVEAEDAATYYCQQWSFNPPTFGAGTKLELKDGGGSGGGGSGGGGSSQAYLQQSGAESVRPGASVKMSCKASGYTFTSYNMHWVKQTPRQGLEWIGAIYPGNGDTSYNQKFKGKATLTVDKSSSTAYMQLSSLTSEDSAVYFCARVVYYSNSYWYFDVWGTGTTVTVSEPKSSDKTHTSPPSPAPELLGGSSVFLFPPKPKDTLMISRTPEVTCVVVDVSHEDPEVKFNWYVDGVEVHNAKTKPREEQYNSTYRVVSVLTVLHQDWLNGKEYKCKVSNKALPASIEKTISKAKGQPREPQVYTLPPSRDELTKNQVSLTCLVKGFYPSDIAVEWESNGQPENNYKTTPPVLDSDGSFFLYSKLTVDKSRWQQGNVFSCSVMHEALHNHYTQKSLSLSPGKGCPPCPNSQVQLKESGPGLVAPSQSLSITCTVSGFSLTGYGVNWVRQPPGKGLEWLGMIWGDGSTDYNSALKSRLSITKDNSKSQVFLKMNSLQTDDTARYYCARDGYSNFHYYVMDYWGQGTSVTVSSGGGGSGGGGSGGGGSGGGGSDIVLTQSPASLAVSLGQRATISCRASESVEYYVTSLMQWYQQKPGQPPKLLISAASNVESGVPARFSGSGSGTDFSLNIHPVEEDDIAMYFCQQSRKVPWTFGGGTKLEIKR | ~0.5 | ~0.3 | ~1 |  | 
2H7-sss-hIgG-STD1-G19-4 HL (bispecific antibody, Assembled from modules; also called 2H7sssIgG1-STD1-G19-4 HL; CD20-hIgG-CD3 multispecific molecule (SSS hinge, HL); not shown: human IgG1 CH2-CH3) chain (part 1 of 2): QIVLSQSPAILSASPGEKVTMTCRASSSVSYMHWYQQKPGSSPKPWIYAPSNLASGVPARFSGSGSGTSYSLTISRVEAEDAATYYCQQWSFNPPTFGAGTKLELKDGGGSGGGGSGGGGSSQAYLQQSGAESVRPGASVKMSCKASGYTFTSYNMHWVKQTPRQGLEWIGAIYPGNGDTSYNQKFKGKATLTVDKSSSTAYMQLSSLTSEDSAVYFCARVVYYSNSYWYFDVWGTGTTVTVSEPKSSDKTHTSPPSP chain (part 2 of 2): NYGGGGSGGGGSGGGGSGNSEVQLQQSGPELVKPGASMKISCKASGYSFTGYIVNWLKQSHGKNLEWIGLINPYKGLTTYNQKFKGKATLTVDKSSSTAYMELLSLTSEDSAVYYCARSGYYGDSDWYFDVWGAGTTVTVSSGGGGSGGGGSGGGGSASDIQMTQTTSSLSASLGDRVTISCRASQDIRNYLNWYQQKPDGTVKLLIYYTSRLHSGVPSRFSGSGSGTDYSLTIANLQPEDIATYFCQQGNTLPWTFGGGTKLVTKRS |  |  |  | binds | 
2H7-sss-hIgG-STD1-G19-4 LH (bispecific antibody, Assembled from modules; also called 2H7sssIgG1-STD1-G19-4 LH; CD20-hIgG-CD3 multispecific molecule (LH); not shown: human IgG1 CH2-CH3) chain (part 1 of 2): QIVLSQSPAILSASPGEKVTMTCRASSSVSYMHWYQQKPGSSPKPWIYAPSNLASGVPARFSGSGSGTSYSLTISRVEAEDAATYYCQQWSFNPPTFGAGTKLELKDGGGSGGGGSGGGGSSQAYLQQSGAESVRPGASVKMSCKASGYTFTSYNMHWVKQTPRQGLEWIGAIYPGNGDTSYNQKFKGKATLTVDKSSSTAYMQLSSLTSEDSAVYFCARVVYYSNSYWYFDVWGTGTTVTVSEPKSSDKTHTSPPSP chain (part 2 of 2): NYGGGGSGGGGSGGGGSGNSDIQMTQTTSSLSASLGDRVTISCRASQDIRNYLNWYQQKPDGTVKLLIYYTSRLHSGVPSRFSGSGSGTDYSLTIANLQPEDIATYFCQQGNTLPWTFGGGTKLVTKRGGGGSGGGGSGGGGSASEVQLQQSGPELVKPGASMKISCKASGYSFTGYIVNWLKQSHGKNLEWIGLINPYKGLTTYNQKFKGKATLTVDKSSSTAYMELLSLTSEDSAVYYCARSGYYGDSDWYFDVWGAGTTVTVSS |  |  |  | binds | 
2H7-sss-hIgG P238S/P331S-H6-2e12 VHVL (bispecific antibody, Assembled from modules as m11; The preparation held a share of cleaved, SMIP-sized molecules; also called 2H7-sss-hIgG-H6-2e12) QIVLSQSPAILSASPGEKVTMTCRASSSVSYMHWYQQKPGSSPKPWIYAPSNLASGVPARFSGSGSGTSYSLTISRVEAEDAATYYCQQWSFNPPTFGAGTKLELKDGGGSGGGGSGGGGSSQAYLQQSGAESVRPGASVKMSCKASGYTFTSYNMHWVKQTPRQGLEWIGAIYPGNGDTSYNQKFKGKATLTVDKSSSTAYMQLSSLTSEDSAVYFCARVVYYSNSYWYFDVWGTGTTVTVSEPKSSDKTHTSPPSPAPELLGGSSVFLFPPKPKDTLMISRTPEVTCVVVDVSHEDPEVKFNWYVDGVEVHNAKTKPREEQYNSTYRVVSVLTVLHQDWLNGKEYKCKVSNKALPASIEKTISKAKGQPREPQVYTLPPSRDELTKNQVSLTCLVKGFYPSDIAVEWESNGQPENNYKTTPPVLDSDGSFFLYSKLTVDKSRWQQGNVFSCSVMHEALHNHYTQKSLSLSPGKGGGGSGGGGSGGGGSGNSQVQLKESGPGLVAPSQSLSITCTVSGFSLTGYGVNWVRQPPGKGLEWLGMIWGDGSTDYNSALKSRLSITKDNSKSQVFLKMNSLQTDDTARYYCARDGYSNFHYYVMDYWGQGTSVTVSSGGGGSGGGGSGGGGSGGGGSDIVLTQSPASLAVSLGQRATISCRASESVEYYVTSLMQWYQQKPGQPPKLLISAASNVESGVPARFSGSGSGTDFSLNIHPVEEDDIAMYFCQQSRKVPWTFGGGTKLEIKR | ~0.8 | ~0.3 | ~1 |  | 

The remaining lines, values ahead:

EC50 (read off the curve) [1] [µg/mL] | EC50 (read off the curve) [2] [µg/mL] | EC50 (read off the curve) [3] [µg/mL] | binding result [4] | binding result [5] | Binder
 |  |  | binds |  | 2H7-csc-hIgG-STD1-G19-4 HL (bispecific antibody, Assembled from modules; also called CD20-hIgG-CD3 multispecific molecule (CSC hinge, HL); not shown: human IgG1 CH2-CH3) chain (part 1 of 2): QIVLSQSPAILSASPGEKVTMTCRASSSVSYMHWYQQKPGSSPKPWIYAPSNLASGVPARFSGSGSGTSYSLTISRVEAEDAATYYCQQWSFNPPTFGAGTKLELKDGGGSGGGGSGGGGSSQAYLQQSGAESVRPGASVKMSCKASGYTFTSYNMHWVKQTPRQGLEWIGAIYPGNGDTSYNQKFKGKATLTVDKSSSTAYMQLSSLTSEDSAVYFCARVVYYSNSYWYFDVWGTGTTVTVSEPKSCDKTHTSPPCP chain (part 2 of 2): NYGGGGSGGGGSGGGGSGNSEVQLQQSGPELVKPGASMKISCKASGYSFTGYIVNWLKQSHGKNLEWIGLINPYKGLTTYNQKFKGKATLTVDKSSSTAYMELLSLTSEDSAVYYCARSGYYGDSDWYFDVWGAGTTVTVSSGGGGSGGGGSGGGGSASDIQMTQTTSSLSASLGDRVTISCRASQDIRNYLNWYQQKPDGTVKLLIYYTSRLHSGVPSRFSGSGSGTDYSLTIANLQPEDIATYFCQQGNTLPWTFGGGTKLVTKRS
 |  |  |  | binds | 2H7-sssIgG P238S/P331S-STD1-2e12 VLVH (bispecific antibody, also called 2H7-IgG-STD1-2E12 LH; 2H7-2E12 LH) QIVLSQSPAILSASPGEKVTMTCRASSSVSYMHWYQQKPGSSPKPWIYAPSNLASGVPARFSGSGSGTSYSLTISRVEAEDAATYYCQQWSFNPPTFGAGTKLELKDGGGSGGGGSGGGGSSQAYLQQSGAESVRPGASVKMSCKASGYTFTSYNMHWVKQTPRQGLEWIGAIYPGNGDTSYNQKFKGKATLTVDKSSSTAYMQLSSLTSEDSAVYFCARVVYYSNSYWYFDVWGTGTTVTVSEPKSSDKTHTSPPSPAPELLGGSSVFLFPPKPKDTLMISRTPEVTCVVVDVSHEDPEVKFNWYVDGVEVHNAKTKPREEQYNSTYRVVSVLTVLHQDWLNGKEYKCKVSNKALPASIEKTISKAKGQPREPQVYTLPPSRDELTKNQVSLTCLVKGFYPSDIAVEWESNGQPENNYKTTPPVLDSDGSFFLYSKLTVDKSRWQQGNVFSCSVMHEALHNHYTQKSLSLSPGKNYGGGGSGGGGSGGGGSGNSDIVLTQSPASLAVSLGQRATISCRASESVEYYVTSLMQWYQQKPGQPPKLLISAASNVESGVPARFSGSGSGTDFSLNIHPVEEDDIAMYFCQQSRKVPWTFGGGTKLEIKRGGGGSGGGGSGGGGSQVQLKESGPGLVAPSQSLSITCTVSGFSLTGYGVNWVRQPPGKGLEWLGMIWGDGSTDYNSALKSRLSITKDNSKSQVFLKMNSLQTDDTARYYCARDGYSNFHYYVMDYWGQGTSVTVSS
